For one experiment, the target named is T1, bovine serum albumin (bovine, UniProt P02769 25-607).
T1 construct: also called BSA
The experiment is described as follows: ELISA with crude Fab preparations. In general terms: An ELISA detects its analyte on a solid surface through an enzyme-linked reagent.

For experiment [1], the target named is T2, recombinant JCV VP1 protein (Mad1 strain, Abcam ab74569) (JC virus, Mad1 strain, UniProt P03089 1-354).
T2 construct: also called recombinant VP1 from Mad1 strain; VP1/JCV
Put plainly: method not stated.

Experiment [2] has as its target T3, recombinant BKV VP1 protein (Abcam ab74567) (BK virus, UniProt P03088 1-362).
T3 sequence: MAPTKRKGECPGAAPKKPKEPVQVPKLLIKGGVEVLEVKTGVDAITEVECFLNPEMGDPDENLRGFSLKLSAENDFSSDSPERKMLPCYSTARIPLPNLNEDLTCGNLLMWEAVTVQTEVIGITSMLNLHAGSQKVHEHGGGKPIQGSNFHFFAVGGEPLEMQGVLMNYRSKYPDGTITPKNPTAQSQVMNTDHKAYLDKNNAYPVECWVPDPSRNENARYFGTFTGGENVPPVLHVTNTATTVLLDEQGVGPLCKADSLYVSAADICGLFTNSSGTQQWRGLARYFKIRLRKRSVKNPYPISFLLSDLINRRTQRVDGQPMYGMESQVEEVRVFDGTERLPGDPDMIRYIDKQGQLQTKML
The experiment is described as follows: ELISA on recombinant JCV VP1 and recombinant BKV VP1.

T1 sequence (P02769 25-607 limits assumed): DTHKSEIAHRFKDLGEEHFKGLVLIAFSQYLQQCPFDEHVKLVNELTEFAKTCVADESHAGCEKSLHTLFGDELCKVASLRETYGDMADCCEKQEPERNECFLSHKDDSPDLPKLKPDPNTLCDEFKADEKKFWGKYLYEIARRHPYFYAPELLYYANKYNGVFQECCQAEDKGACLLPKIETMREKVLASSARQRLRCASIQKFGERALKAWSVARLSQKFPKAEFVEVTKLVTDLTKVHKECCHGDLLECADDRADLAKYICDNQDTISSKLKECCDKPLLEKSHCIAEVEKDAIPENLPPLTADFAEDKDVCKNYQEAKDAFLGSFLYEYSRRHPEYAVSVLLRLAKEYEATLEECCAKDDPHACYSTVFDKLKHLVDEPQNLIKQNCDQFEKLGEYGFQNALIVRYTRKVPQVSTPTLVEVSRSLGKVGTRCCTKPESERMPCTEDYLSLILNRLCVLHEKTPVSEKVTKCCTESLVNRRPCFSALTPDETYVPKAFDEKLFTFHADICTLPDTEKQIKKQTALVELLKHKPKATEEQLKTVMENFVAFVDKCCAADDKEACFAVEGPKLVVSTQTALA
T2 sequence (P03089 whole entry): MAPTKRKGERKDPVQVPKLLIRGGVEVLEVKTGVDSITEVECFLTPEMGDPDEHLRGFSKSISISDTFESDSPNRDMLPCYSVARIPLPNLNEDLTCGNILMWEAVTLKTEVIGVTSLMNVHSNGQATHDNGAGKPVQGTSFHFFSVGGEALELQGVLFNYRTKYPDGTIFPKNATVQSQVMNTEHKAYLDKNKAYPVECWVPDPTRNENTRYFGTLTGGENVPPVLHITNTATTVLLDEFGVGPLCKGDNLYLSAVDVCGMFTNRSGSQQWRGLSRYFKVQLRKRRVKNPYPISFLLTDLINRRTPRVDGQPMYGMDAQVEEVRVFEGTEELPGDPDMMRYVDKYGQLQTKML

B1: GRE1 human anti-JCV VP1 monoclonal antibody (Fab, V domains shown)
VH: WGPGLVKPSQSLSLTCAVSGASVSSGINYWSWIRLYPGKGLEWIGYVYSSGTTYYNPSLKSRVSISLDTSKNQFSLNLRSVTAADTAVYYCARDRGDSSGSSYYKYYMDVWGKGTTVTVSS
VL: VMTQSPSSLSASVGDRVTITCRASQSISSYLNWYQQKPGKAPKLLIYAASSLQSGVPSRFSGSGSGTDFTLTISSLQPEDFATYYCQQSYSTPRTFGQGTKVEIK
notes: also called IgG GRE; JCV-GRE1
As a reminder, the Kd is the free concentration of one partner at which half of the binding sites on the other are occupied at equilibrium, for simple one-to-one binding. With B1, the binding result (in the experiment with bovine serum albumin; in experiment [2]) was “no binding” each time. Also, the Kd in experiment [1] was around 1 nM.

The record behind these values is patent publication US20150191530A1 (POMONA RICERCA S R L, published 2015).
